In a protein production outcome set (Wang et al. 2014):

Experiment: label from the status in PepcDB records

Row | Sequence | protein production
1 | AIARSEWPFDYASEADAMLHRITPENFEKLVRFAARLLRVGEIIALPTDTVYGLAAAARNSHGIELLYQTKQRDLRKPLAIAVPSVEDVSVYLHTEHLPPGLLEAILPGPLTLLLRQREDYVGIDLQDVRIDQYRGWERAKRLAPNLNLRRDGLLGVRVPDASFACAVSRELGDPLALTSANVSGRGDCGSVDEFRALWSACAAVFDGGAMPKPVMPSTVVDLSVPGTFRITRAGWMATDLVRILENKFGLTNKSANTSN | failed
2 | MIIHTLHRYILRNLLVGLAVGSVALIVLIWLINSLKFLDWFVNKGLSVATFLRLTLLLMPGFLTVFIPIALFAVVLFTYNRLAADRELIVMRAAGMGPWQLARPALALCAVLTGVGYWLTLSVVPAMEGAFEAIKYEVRGEVSSLVIKEGQFNQMKDGLIVYAGERAKDGRLIDLMIHDTTGKTSDLTVMAESGALVREGEGARILLINGNRQERNRQTGKVNFLYFDSYAVDLGGKAASTEMRFREERERPLSELISLKAGDRIDPDYPFTYEERHIRRMRMEAHLRLLRPLAHIGFLLIGLAAVLTGEFDRRGGNKRVILAVALVVLFQAGSLGAATVAKKSLDGLLLLDLMTLLPILVGWIWLVWPSERWGRRRLAPRRGRTAAPALGGGAGR | failed
3 | MKVAGDKIKQARKLKKITQSELANGICTQATISNIENRNLCDSLDIFSSICLRLDLEVEECMMISEEKKIENLLNKVEDLSLRLFHLEAYNLLQEVPEGLILSNNELTTKLLYYKGITCLLGKKDKAEALFYLYRGAEIDRKVNIYNILSLNALGTLYELEKDMRKAQVYYEKSLQELEQFKLECSLERCRIYYNSAKFYSEMKDYQKSVILSEKGIQICRDKHSIYLLDYLLYEKAFNKQMLGEDTADDYRQAYYFTQFFGNTEVLQYIEKDMKAFNISY | failed
4 | MNTKIITILFIAFLSVLFFTGCIEEKISSQEHGSTKGISSSNDENTENRTVTDSLGRQVQVPLMVERVADTWMGHNEVLAMLGADDRLVATMFSPQSRPWMYKVCPTFNDAVTLSPTYDIEELLATKPDVVFMSKSDKNLEKISNLGIPAVQVSFTDFDSMKKCISDTANVLGDEEALERAQQYNTYLDSKLESVRNTSSQIPDENRPKVLHVVSLSPLCVDGGGNIISDWIEAAGGVNAAEEVKGGIMQEVSMEQILKWNPDVIILSVNAKSREKEQIMNSDQWKKVKAIQDNRVFLNPEGAFIWSRAGAEEALQIQWAAKTINPDKFQFIDINNETKWFYKTFFEYELTDEEVQKILNAEAPN | failed
5 | MSEPFTPGDLKTILHSKRANLYYLEHCRVLVNGGRVEYVTDAGKQSLYWNIPIANTTTLLLGTGTSVTQAAMRELAKAGVMVGFCGGGGTPLFSAGEVEMEVAWQSPQSEYRPTEYLQWWARFWFDDDKRLQAAKQLQQARLARIRAQWLDNRQLREAGFEIEPSRLTQLLDASLASLERAPDHTALLTEEARLSKQLFRLAAQATAYGEFTRAKRGGGVDPANRFLDHGNYLAYGLGATAAWVLGLPHSLAILHGKTRRGGLVFDAADLVKDAAILPQAFVSAMKGDDEQTFRQQCIEQLARGEALDFMIDQLQRIAEQLGRDG | failed
6 | VYTLMTTRSHDQYNTTLYGLDDRYRGVFGQRRVLFMNEQDIQEAGFQADQWVDIESIYSDGLKRIVRSFKIVPYNIPRGSMAAYYPETNPLVALSSHDKYAKIPASKSIPVILHPGQAPEHFNLAAPVDPEHANG | failed
7 | DNDAIYYPVGDVDIERGGPALEVGEEDVLVARSFNEEDYVLDTIAQYPNDPTLGKLTFMIDLKNQQKDQNVADFNGVGKSKLTMSLGYKDGNYPSESQVPIYTSQDVTAKYAVKLRLKGELLVSGDEWMIDYVYAQLASLFQPYPPANFPEVFMCKGGMKLGTFDSFRRTCTFDITYDRSDLSFSQLYFNLFINLAGQKRENRVRLRIDKESYFELYEQSEEM | not failed
8 | MFLDYFALGLLIFVALVIFYGIIVIHDIPYEIAKEREHPHQDAIHYAGWVSLFTLHALWPFLWIWATLWRKERGWGFQKLEAEQHDIHHRVDVLIDEVKQLRTELETLKTSSLSVPKSTPAASTSEEKQ | failed
9 | MKTVRCSILGFGAIGQGVAEVLLMKKEYLESIGLEIIVVAVVDSRGATINPEGVDLADCLARKRTTGTVAIEKITGVEVIKSIDHDLVIETTPTNIVTGGAGLQNMFAAFEIGKDVITSNKGPLTLKYRELMEAAKVAGSSFRFEATVGGSMPIINLANEVLAGNRLKSIKGILNGTCNYILTRMLEERASYKDILAESMELGIAETDPTYDVDGIDTACKLVILANAIFGLNATYKDVEVTGITKITPEALEMAYERGHVIKLIGEVSRERIHVAPRLVPINHPLDVRGTLNVASIDTELAGEITVTGKGAGPVETASAILSDLIAIYGNQLEHHHHHH | not failed
10 | MRYERDMRGYGANPPDPKWPGGAHVAVQFVVNYEEGGENCVLHGDKASEAFLSEIVGAAPWVGQRHWNMESIYEYGARAGFWRLLRLFSESQVPVTCYGVASALARSPDQVTAMQDAGWEIASHGLRWIDYRDHSAEDERRDLEAAIKLHYEVTGQRPTGWYTGRTSVNTVRLVAEEGGFDYVSDTYDDELPYWFEHAGGTQLIIPYTLDANDMRFATPQGFNSGDQFFAYLKDSFDTLYAEGQAGRPRMMNIGLHCRLVGRPGRVAALKRFVDYVKSHDKVWLTRRIDIAKHWQENHPYKPAALRPSKMEFEIFVHTFGGVFEHSPWIAERAYELELGPAHDTAGGLHNALCRIFRSASETERLGVLNAHPDLAGKLAKARRLTAESTREQASAGLDALTDKERELFSKLNAAYVTTFGFPFIIAVKGKTKEEILAEFEARIGNSRGVEFETACKQVERIALLRLRDMLPQ | failed
11 | MENFAEIVGIGPAGVISITGGGGKTSLMFHLARQLAYSGKRVLTTTTTKILAPSVEESRTLLISQDPQVILRHAKAHPGPGVHVSAAAGHIPHTEKLQGFPREAIRTFEDSGEFDWVVVEADGAARKPLKAPAAHEPVIPGNSTIVVALAGLEVLGRPLGEEMVFRSELAGELMQIPQGETITVPALARLLAHPSGGFKGAPPQARRFIFLNKADTPELQEKGGEVALQLKEIAPSVAEAVIVGQLRQEITLHRVYPRGELEHHHHHH | not failed
12 | MIITKNISLPELYQEWLDLKIMPSNRSDVTKKKYLSRKVTLEKLFGDKPISQIRPSEYQRIMNNYGQRVSRNFLGRLNTGVKQSLQMAIADKVMIEDFTQNVELFSTVKLEHHHHHH | not failed
13 | GNPKLKDLYIRPNIVTKRMTGSLEAHSNGFRYISVRGDKVDILYNNIKSAFFQPCDGEMIILLHFHLKYAIMFGKKKHVDVQFYTEVGEITTDLG | failed
14 | MQLPTQQVAVLDAASTDDPQRIEALAADTDYPPETIAGAALALEAEGLVAVTETTTTTVSLTDEGHAYATDGLPEVRLYRAALDAGADDAPVEMGSVIGAAGLDGPQVDIALSNYARKGYGTIDSGALAADPDADPENDPEADALATLTDGDSVDDDAVVDQLASRDLVTVSERTVRSVTLTEAGVTELMAGVEATDEVGELTPELLASGEWADVEFADYNVAADAADHTPGKTHVLRQAAERVTDVLVGMGFQEMAGPHVDADFYINDCLFMPQDHPARNHWDRFALSNPARIDELPDALVERVERAHREGAGDDGDGYHSPWDEDFARALALRGHTTSLTARHLAGLADADVEAPARYFSVEKAYRNDTLDATHLLEFFQIEGWVLADDLSVRDLMGTFREFYSQFGIHDLQFKPTYNPYTEPSFELFGRHPETGELIEIGNSGIFRPEMLDPLDVDGDVMAWGLALERLLMLMTGFEDIRDVHGTLCDVGFLRNAEVVY | failed
15 | MLKIKILIIIFCCIGVVKAQTVIPPSSETPPGWIYYDGDEFNGDVIDSRYWGIYGSPKVGRPTYNQENKAMLQTYRPEQVFIETLPTGEKICRIRSFKSKDAPSPVHPSVKSKTGWWSGALSSRDSDTEKYYPLFCRIEIKAKVPYLYGLWNALWLRHYKGAGVAEIDILEFFTKAFGENPYPAKANQTLHLFNSETQKLGINLPKGQIRYTEIGDDKPGDNFHVYAVQIDPDPVDNNHAIITFLIDNKVNYQIHTRTQLGDAYTDFITKARKEDRLDRVWDIAITGQVGAFDKLDVGYPAEELQQFDFDIDWIRVYVRDPHTRIVGNSKLPHTPEADSFVKDLLSRMTVEEKIGQLSQYVGRTLLTGPESEYLSDSLIARGLVGSVLNISGAKTLRDLQEKNMRHSRIKIPILFGMDVIHGYKTIFPTPLAESCSWDLAAIERAAKIAAIESSAAGLHWTFAPMVDIARDARWGRVVEGAGEDTYLGSEIAKARVNGFQWNLWENNSVLACAKHWVAYGLPQAGRDYAPVDMSERTLFDTYLPPFKACIDAGVLTFMSAFNDINGIPASAHPFLLKDLLRGQWNFNGFVVSDWEAVKQLVAQGVAEDDKDATRLAFNSGIDMDMTDGLYNKYMKELIEAGKISMEDVDNSVSRILHIKYALGLFVDPYKFCNEEYESQTIMKKEFLDAALDMAHKSAVLLKNDNHTLPLAKNVRSIAVVGPLADNQTELLGSWRARGEDRHVTTVLQGIKNKIGGNKTKVGYARGCDFDGEDKSGFKEAVKLASKSDMVIAVVGEKALMSGESRSRAQLDLPGVQEELIKELVATGKPVVVVLMNGRPLSIEWVDKNVSAILETWFLGTSAGTAIADILFGDYNPSGRLTISFPRVEGQVPIYYNYKKSGRPGDMLHSSTTRHIDVPNAPLYPFGYGLSYTTFSYSAPQSTQKEYTRQETISVSVTVTNTGDRDGEETVQLYVNDKVASVVRPVKELKAFKKIFLKAGESKTVQFDISPLALGFYDAAMNYVVEPGEFEIMTGCNSNDLQTISVKLIN | failed
16 | MKKLLTKGQIAILVIFSVLIIDQVIKIWIKTHMYWHESIRITDWFYIYFTENNGMAFGMELFGKLFLTTFRIVAVGLIGWYLYKIVKRGLKTGYIICVSLILTGALGNIIDSVFYGVIFNESTHSQIASFMPDGGGYSTWFYGKVVDMFYFPIIDTNWPTWMPFVGGEHFIFFSPIFNFADAAISCGIIALLLFYSKYLNDSYHHSVTKK | failed
17 | MSDARAWDSPDDAHRLIAKALAELVAEDPTIPPHPYLSRHLAQHAARGRVLDDTHVPLAILPWESSRNVRILLRQTGATQQQDWLEAWAGIEPFVRDADPDSRLTSLHLAHHTATCRRLSLTARPVSERRLAGSRITPLWSDWTAPDNVLAVSDTLVESLAHTTTAPGRTLLISGDSHGTIRMWEANGTPAGAPLHTHGGAIQHLLPLQHDLLVSGGTDGAVRVWHSTRGQQLVEPVRRPHTWVSALALFEPADGARFLLVAHSDGHLTALDPVTFEPADTPLPALDPAPAILTPLATADGTALVIAQGRRVVVWRPGRGVVHISEHQGEVRAVVALPSGGRYAVCDDSGYLGFWDVSTGHETVAAGPAHDGPVIALTTLAVDGRQTVVSAGLDHTLRVWDADTGRPVGGALEGHTDPPVALTTLPGEGQELVVSAAADHTLRRWKLAGHGTRPRRPVRRPVTAAALPGPTVVPALLAAVADGAGTALWNVRTGRHVSLPAGEPPVTAFAWATVHGDPVLLTAHSDAAVRLWSLYAGNAVTPSLRGTLLNHSLPVQAMTAFPHAGATLLATGGADGSVRLWHLGDRLELAHWDDHALSVRDVTLLGTGEDALIVSAGSDGTVRLWDPGTRRASGGPVHCGQQVVHAVTTVAPHPDEAALIASGGEDGTVRLWDPTTRQPVGDPLDARDGAVTALASFHTPAGRPCLAAAGPSGTIHLWDVAARTHLLRIVTGNPLSTLAARQTGEPFTEHPVLLAAGTAGVCMFDVRLERLR | failed
18 | MCEHHHAAKHILCSQCDMLVALPRLEHGQKAACPRCGTTLTVAWDAPRQRPTAYALAALFMLLLSNLFPFVNMNVAGVTSEITLLEIPGVLFSEDYASLGTFFLLFVQLVPAFCLITILLLVNRAELPVRLKEQLARVLFQLKTWGMAEIFLAGVLVSFVKLMAYGSIGVGSSFLPWCLFCVLQLRAFQCVDRRWLWDDIAPMPELRQPLKPGVTGIRQGLRSCSCCTAILPADEPVCPRCSTKGYVRRRNSLQWTLALLVTSIMLYLPANILPIMVTDLLGSKMPSTILAGVILLWSEGSYPVAAVIFLASIMVPTLKMIAIAWLCWDAKGHGKRDSERMHLIYEVVEFVGRWSMIDVFVIAVLSALVRMGGLMSIYPAMGALMFALVVIMTMFSAMTFDPRLSWDRQPESEHEES | failed
